The record followed here is US20040202655A1 (published 2004).

The target in test [1] is T1, human IGF-I receptor on cells (NIH-3T3 fibroblasts expressing the human IGF-IR; DU145 cells) (human, UniProt P08069 31-1367).
T1 construct: whole, on cells; Mature receptor is an alpha2-beta2 tetramer cut from one precursor; also called IGF-1R; hu-IGF-1R
The test can be described thus: saturation binding of 125I-labelled IgG to NIH-3T3 cells expressing human IGF-1R, on ice; unit inferred. Here is the method: The mixtures were in incubated on ice for 70 min. After the incubation the tubes were centrifuged at 1000 rpm for 1 min and the supernatant fractions were removed by aspiration. The cell pellets were washed with 50 μl of ice-cold Hanks' Balanced Salt Solution containing 0.2% BSA and 20 mM Hepes and centrifuged at 1000 rpm for […] and the supernatant fractions were removed by aspiration. The resulting cell pellets were counted in Perkin Elmer Cobra Quantum gamma counter. […] The specific binding was obtained by subtracting the non-specific binding counts from the total binding counts in corresponding pairs.

Test [2] addresses T1, human IGF-I receptor on cells (NIH-3T3 …). The test can be described thus: competition with 125I-IGF-I, NIH-3T3 cells expressing human IGF-1R, 4 C. As to the method:
(§1) NIH-3T3 fibroblasts expressing the human IGF-IR, or NIH-3T3 non-transfected fibroblasts were plated at 6×10⁴ cells per well in 0.5 ml of DMEM (Gibco, #11960-044) supplemented with 10% heat-inactivated fetal bovine serum (Gibco, #16140-071), 2 mM L-glutamine (Gibco, #25030-081) and 50 U/ml penicillin-streptomycin (Gibco, #15070-063). The NIH-3T3 cells were used as a control for non-specific cell binding. The plates were incubated at 37° C./5% CO₂ for 24 hours to allow cells to attach and become 80-90% confluent. The overlying media was then replaced with 0.5 ml per well of starvation media consisting of DMEM, 20 mM Hepes (Gibco, #15630-080), 2 mM L-glutamine and 0.1% bovine serum albumin (Equitech-Bio, protease-free, Kerrville, Tex.) and the plates were incubated at 37° C., 5% CO₂ overnight. All subsequent binding steps were conducted at 4° C. Test antibodies were diluted in ice-cold starvation media to the desired final concentration and 100 μl added per well. All samples were performed in duplicate. […] Cell monolayers were washed three times with ice-cold PBS (Gibco, #14040-117) and cells and associated radioactivity were released by adding 0.5ml 2% sodium dodecyl sulfate/0.2N NaOH to each well and heating the plates at 60° C. for 15 minutes. Lysate associated radioactivity was quantitated by gamma scintillation spectrometry. Alternatively, the same described experiment was performed with preincubation with the test antibodies at 37° C. for 10 minutes, followed by 10 minutes incubation at 37° C. after addition of 400 pM of the iodinated radioligand.

Test [3] shares this target. Put plainly: cell-based or functional assay.
Test [4] has the same target. Put plainly: competition with 125I-IGF-II, NIH-3T3 cells expressing human IGF-1R, 4 C. Here is the method:
as §1

For test [5] the target is unchanged. The test can be described thus: cell-based or functional assay. This is another data set of the same source.
Test [6] shares this target. Put plainly: competition with 125I-IGF-I, NIH-3T3 cells expressing human IGF-1R, 37 C. As to the method:
as §1, with “Alternatively, the same described experiment was performed with preincubation with the test antibodies at 37° C. for 10 minutes, followed by 10 minutes incubation at 37° C. after addition of 400 pM of the iodinated radioligand.” left out

Test [7] shares this target. Put plainly: competition with 125I-IGF-II, NIH-3T3 cells expressing human IGF-1R, 37 C.

Values joined by “and” are separate entries in the source; they are usually repeats but may differ in a detail not shown here. Equal values may be shown once. Some results are limits rather than exact numbers.

The term Kd denotes the constant that tells how readily two partners part at equilibrium. Higher therefore signals weaker binding. As usually defined, the IC50 is the concentration that inhibits the measured activity by half. A higher IC50 goes with lower potency.

B1: PINT-11A4 IgG (antibody, V domains shown)
VH: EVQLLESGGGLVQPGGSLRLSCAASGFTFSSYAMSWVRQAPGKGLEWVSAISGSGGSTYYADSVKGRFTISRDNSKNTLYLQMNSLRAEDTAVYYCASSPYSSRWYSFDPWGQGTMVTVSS
VL: LSYELTQPPSVSVSPGQTATITCSGDDLGNKYVSWYQQKPGQSPVLVIYQDTKRPSGIPERFSGSNSGNIATLTISGTQAVDEADYYCQVWDTGTVVFGGGTKLTVLG
The molecule B1 showed a Kd in test [1] of 2.24 nM. The half-maximal inhibitory concentration (IC50) is greater than 100 nM in test [2]; greater than 75 nM in test [4]; 1.9 nM in test [6]; 3 nM and 2.6 nM in test [7]. Besides, the “Antagonist Assay IC50 (nM), IGF-I-induced IGF-1R tyrosine phosphorylation (ELISA)” value in test [3] is 2.4 nM and 3.3 nM. Also, the “IC50 (nM), IGF-1 dependent proliferation of NIH-3T3/hIGF-1R cells (BrdU ELISA)” value in test [5] was 3.4 nM and 2.6 nM.
